Measurements published in patent publication US20260232802A1 (published 2026).

T1: Human Telomerase Reverse Transcriptase (hTERT) peptide on HLA-A*03:01 (human)
T1 peptide: SVLNYERARR

T2: Survivin (BIRC5) peptide on HLA-A*02:01 (human)
T2 peptide: LTLGEFLKL

T3: Survivin (BIRC5), modified form of the peptide peptide on HLA-A*02:01 (human)
T3 peptide: LMLGEFLKL


Key:
[1] = molecular target: T1, Human Telomerase Reverse Transcriptase …; assay: multimer staining
[2] = molecular target: T2, Survivin (BIRC5) peptide on HLA-A*02:01; assay: killing
Method: (A) Survivin-specific transgenic T cells were co-cultured with Survivin⁺ primary AML blasts expressing (target blasts) or not (control blasts) the HLA-A0201⁺ allele in 1:1 effector to target ratio. After 24 hours, elimination index was calculated as [1-(number of alive blasts cultured with edited T cells/number of alive blasts alone)]. (B) Survivin-specific transgenic T cells were co-cultured with Survivin⁺ primary AML blasts expressing (target blasts, upper) or not (control blasts, lower) the HLA-A0201⁺ allele in 1:1 effector to target ratio. Killing is represented as area covered (μm²) by cells undergoing apoptosis (caspase 3/7 activation) overtime. […] Data are presented as means±SD. ****P<0.0001, by Student t-test (A) or two-way ANOVA (B).
For killing assay cells were plated and kept at 37° C. and 5% CO2 after the addition of anti-CD28 monoclonal antibodies (1 μg/ml; BD biosciences) for 72 hours in case of co-culture with cell lines, and for 24 hours for co-cultures with primary AML blasts. […] Viable target cells were counted using counting beads (Flow-count fluorospheres, Beckman Coulter), according to manufacturer's instructions. Elimination index was calculated according to the formula: [1-(number of alive target cells in culture with effector T cells/number of alive target cells in control culture)]. […] Data were analyzed by FlowJo software version 10 (BD).

[3] = molecular target: T3, Survivin (BIRC5), modified form of the …; assay: multimer staining

Row | Binder | binding result [1] | binding result [2] | binding result [3]
1 | hTERT #1 (TCR, V domains shown) Valpha: GENVEQHPSTLSVQEGDSAVIKCTYSDSASNYFPWYKQELGKRPQLIIDIRSNVGEKKDQRIAVTLNKTAKHFSLHITETQPEDSAVYFCADWVDMRFGAGTRLTVKP Vbeta: GAVVSQHPSWVICKSGTSVKIECRSLDFQATTMFWYRQFPKQSLMLMATSNEGSKATYEQGVEKDKFLINHASLTLSTLTVTSAHPEDSSFYICSAPLDRGSNQPQHFGDGTRLSIL | recognises |  | 
2 | hTERT #2 (TCR, V domains shown) Valpha: GQNIDQPTEMTATEGAIVQINCTYQTSGFNGLFWYQQHAGEAPTFLSYNVLDGLEEKGRFSSFLSRSKGYSYLLLKELQMKDSASYLCAVSRPNSGYSTLTFGKGTMLLVSP Vbeta: AAGVIQSPRHLIKEKRETATLKCYPIPRHDTVYWYQQGPGQDPQFLISFYEKMQSDKGSIPDRFSAQQFSDYHSELNMSSLELGDSALYFCASSVRTPSGQETQYFGPGTRLLVL | recognises |  | 
3 | Survivin TCR (TCR, V domains shown) Valpha: SQKIEQNSEALNIQEGKTATLTCNYTNYSPAYLQWYRQDPGRGPVFLLLIRENEKEKRKERLKVTFDTTLKQSLFHITASQPADSATYLCALDRMDSSYKLIFGSGTRLLVRP Vbeta: NAGVTQTPKFQVLKTGQSMTLQCAQDMNHEYMSWYRQDPGMGLRLIHYSVGAGITDQGEVPNGYNVSRSTTEDFPLRLLSAAPSQTSVYFCASSYDQDGEAFFGQGTRLTVV |  | recognises | recognises
4 | hTERT #3 (TCR, V domains shown) Valpha: KDQVFQPSTVASSEGAVVEIFCNHSVSNAYNFFWYLHFPGCAPRLLVKGSKPSQQGRYNMTYERFSSSLLILQVREADAAVYYCAVETGGGATNKLIFGTGTLLAVQP Vbeta: NAGVTQTPKFQVLKTGQSMTLQCAQDMNHNSMYWYRQDPGMGLRLIYYSASEGTTDKGEVPNGYNVSRLNKREFSLRLESAAPSQTSVYFCASSEFWLTQETQYFGPGTRLLVL | recognises |  | 
5 | hTERT #4 (TCR, V domains shown) Valpha: GIQVEQSPPDLILQEGANSTLRCNFSDSVNNLQWFHQNPWGQLINLFYIPSGTKQNGRLSATTVATERYSLLYISSSQTTDSGVYFCAVSHGRGGATNKLIFGTGTLLAVQP Vbeta: NAGVTQTPKFQVLKTGQSMTLQCAQDMNHNSMYWYRQDPGMGLRLIYYSASEGTTDKGEVPNGYNVSRLNKREFSLRLESAAPSQTSVYFCASDRVLGYEQYFGPGTRLTVT | recognises |  | 
